# According to publication PMC11592144, “Biochemical Characterization of an Arabinoside Monophosphate Specific 5′-Nucleotidase-like Enzyme from Streptomyces antibioticus” (Biomolecules, 2024):
# Tests used:
# [1] = substrate: Nc1ncnc2c1ncn2[C@H]1C[C@H](O)[C@@H](COP(=O)(O)O)O1; test: HPLC of deoxyadenosine formation, Lineweaver-Burk; assay type: biochemical, Streptomyces antibioticus; details: 50 mM HEPES pH 7.5, 1 mM MgCl2, 0.2-2.5 mM substrate, 0.2 mg/mL PenF
# Description: HPLC of deoxyadenosine formation, Lineweaver-Burk on PenF
# [2] = substrate: Nc1ncnc2c1ncn2[C@@H]1O[C@H](COP(=O)(O)O)[C@@H](O)[C@@H]1O; test: HPLC of Ara-A formation, Lineweaver-Burk; assay type: biochemical, Streptomyces antibioticus; details: 50 mM HEPES pH 7.5, 1 mM MgCl2, 0.01-1.5 mM substrate, 0.2 mg/mL PenF
# Description: HPLC of Ara-A formation, Lineweaver-Burk on PenF
protein,measurement,setting,value
"PenF (Streptomyces antibioticus) (protein, codon-optimized penF in pET28a (NdeI/XhoI), C-terminal His6 tag, E. coli BL21(DE3), Ni-NTA; about 42 kDa by MALDI-TOF (45 kDa SDS-PAGE)) MVTLPDRVRAHVLADFATADPAHDIHHLDRVAALAGDIAVLLGADPQTAQVAAYVHDYHRVEEARQGRRPIRPEEARSAVLDVLERSEVPEKLHGTILRAVELTGRYRFGGDELDGEDLIAAAVHDADNLDAMGAVGVGRAFAFGGLLGEPLWEPAAGLKELYTEGETSSVLAHLYEKLVHLEKDMLTEPARRLAAERAFQLHRFAAEFRSQWGEEDVVSHSGGTRVHWDPLTRFLAVTQPEPDGITVTHIGFRGQAMLAFDEQGQPVGVDLLGAPEALTHCVPHAQRSRAWVADAAGGWLLDAEADVVWISISEAPVRRRLTAVGDIEVQLREGKLATLRMHLTEEAPVSVGGEGAP",Km,[1],344 µM
same,Vmax,[1],11.9 µM/min
same,kcat,[1],0.04 s⁻¹
same,kcat/Km,[1],117 M⁻¹ s⁻¹
same,Km,[2],71.5 µM
same,Vmax,[2],170 µM/min
same,kcat,[2],0.565 s⁻¹
same,kcat/Km,[2],7900 M⁻¹ s⁻¹
